{"source": "patent US20090286279", "key": {"[1]": {"target": "sulfo-hirudin ([Leu^1, Thr^2]-hirudin with sulfotyrosine at position 63, expressed in E. coli from pBAD-HirudinTAG) (UniProt P01050)"}, "[2]": {"target": "[Leu^1, Thr^2]-63-desulfo-hirudin (Lepirudin (Refludan)) (UniProt P01050)"}}}
{"substance": "human α-thrombin (Diapharma)", "values": [{"measurement": "thrombin activity (cleavage of fluorogenic substrate Boc-Asp(OBzl)-Pro-Arg-MCA, fluorescence intensity over time)", "setting": "[1]", "result": "Cleavage of the fluorogenic substrate by thrombin, whose activity is inhibited to different degrees by sulfo-hirudin and desulfo-hirudin"}, {"measurement": "thrombin activity (cleavage of fluorogenic substrate Boc-Asp(OBzl)-Pro-Arg-MCA, fluorescence intensity over time)", "setting": "[2]", "result": "Cleavage of the fluorogenic substrate by thrombin, whose activity is inhibited to different degrees by sulfo-hirudin and desulfo-hirudin"}]}
